What was measured:
[1] = molecular target: T1, N2N-AVR-n6; test: SPR; conditions: both partners purified
T1 construct: AVR9 scaffold; source: synthetic peptide, folded in vitro

[2] = molecular target: T2, N2N-AVR-19; test: SPR; conditions: both partners purified
T2 construct: AVR9 scaffold; source: synthetic peptide, folded in vitro

[3] = molecular target: T3, PCSK9 (human, UniProt Q8NBP7 31-692, biotin on lysines (Sulfo-NHS-LC-biotin)); test: SPR; conditions: both partners purified
T3 construct: also called PCSK9FL; hPCSK9 FL

[4] = molecular target: T4, PCSK9ΔCRD (PCSK9 lacking the C-terminal Cys-rich domain CRD) (human, UniProt Q8NBP7 31-452, biotin on lysines (Sulfo-NHS-LC-biotin)); test: ELISA; conditions: one partner purified
T4 construct: also called PCSK9DCRD; PCSK9dCRDTEV

[5] = molecular target: T5, HtrA1 (human, UniProt Q92743 23-480, biotin on lysines (Sulfo-NHS-LC-biotin) for panning and SPR); test: SPR; conditions: both partners purified
T5 construct: also called HtrA1 FL; human full-length HtrA1

[6] = molecular target: T3, PCSK9; test: ELISA; conditions: one partner purified
[7] = molecular target: T6, Notch2Long (Notch2 EGF6-EGF12) (human, UniProt Q04721 219-418, biotin on the N-terminal Avi tag (enzymatic)); test: SPR; conditions: both partners purified
T6 construct: also called N2L protein; hNotch2; not shown: Avi tag, N-terminal, kept
T6 sequence (looked up): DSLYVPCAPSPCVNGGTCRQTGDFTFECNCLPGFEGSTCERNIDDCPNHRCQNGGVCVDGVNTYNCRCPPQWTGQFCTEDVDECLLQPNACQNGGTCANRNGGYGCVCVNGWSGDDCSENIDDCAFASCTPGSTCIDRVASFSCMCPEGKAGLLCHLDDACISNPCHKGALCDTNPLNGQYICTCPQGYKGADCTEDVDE

[8] = molecular target: Her3-Fc Avi-tag (UniProt P21860 20-643); test: SPR; conditions: both partners purified
[9] = molecular target: Her3-Fc (UniProt P21860 20-643); test: ELISA; conditions: one partner purified
[10] = molecular target: T6, Notch2Long (Notch2 EGF6-EGF12); test: SPR; conditions: both partners purified; remark: listed apart in the source
[11] = molecular target: T6, Notch2Long (Notch2 EGF6-EGF12); test: ELISA; conditions: one partner purified

T5 sequence (Q92743 23-480): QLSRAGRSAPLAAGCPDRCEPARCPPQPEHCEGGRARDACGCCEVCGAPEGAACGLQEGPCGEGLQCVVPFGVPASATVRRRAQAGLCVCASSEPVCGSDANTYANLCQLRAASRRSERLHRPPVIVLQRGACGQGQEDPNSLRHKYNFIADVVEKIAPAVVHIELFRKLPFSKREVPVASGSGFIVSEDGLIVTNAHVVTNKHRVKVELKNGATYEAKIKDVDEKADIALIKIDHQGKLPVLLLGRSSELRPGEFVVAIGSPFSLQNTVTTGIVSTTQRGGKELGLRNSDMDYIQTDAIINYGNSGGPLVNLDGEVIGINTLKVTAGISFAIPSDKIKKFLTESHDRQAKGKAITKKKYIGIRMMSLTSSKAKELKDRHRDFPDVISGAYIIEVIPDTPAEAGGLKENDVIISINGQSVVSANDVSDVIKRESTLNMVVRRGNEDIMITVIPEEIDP
T3 sequence (Q8NBP7 31-692): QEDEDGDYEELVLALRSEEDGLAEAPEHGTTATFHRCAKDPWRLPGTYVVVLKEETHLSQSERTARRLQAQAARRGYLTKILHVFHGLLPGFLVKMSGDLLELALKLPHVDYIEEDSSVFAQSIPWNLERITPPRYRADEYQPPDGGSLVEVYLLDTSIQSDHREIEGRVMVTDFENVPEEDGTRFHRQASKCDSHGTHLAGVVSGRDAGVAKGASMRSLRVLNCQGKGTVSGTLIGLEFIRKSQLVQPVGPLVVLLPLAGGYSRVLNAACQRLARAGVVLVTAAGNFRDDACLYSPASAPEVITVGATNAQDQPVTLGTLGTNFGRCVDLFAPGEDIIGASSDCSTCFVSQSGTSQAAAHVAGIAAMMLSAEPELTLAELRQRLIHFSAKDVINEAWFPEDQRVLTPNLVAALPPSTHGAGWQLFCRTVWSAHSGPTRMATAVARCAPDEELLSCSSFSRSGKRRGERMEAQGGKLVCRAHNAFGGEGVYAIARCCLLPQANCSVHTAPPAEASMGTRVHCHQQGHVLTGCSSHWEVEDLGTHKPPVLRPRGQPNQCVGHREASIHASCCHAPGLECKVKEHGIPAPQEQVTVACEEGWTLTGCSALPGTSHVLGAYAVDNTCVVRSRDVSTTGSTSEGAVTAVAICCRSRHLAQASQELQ
Her3-Fc Avi-tag, sequence (P21860 20-643): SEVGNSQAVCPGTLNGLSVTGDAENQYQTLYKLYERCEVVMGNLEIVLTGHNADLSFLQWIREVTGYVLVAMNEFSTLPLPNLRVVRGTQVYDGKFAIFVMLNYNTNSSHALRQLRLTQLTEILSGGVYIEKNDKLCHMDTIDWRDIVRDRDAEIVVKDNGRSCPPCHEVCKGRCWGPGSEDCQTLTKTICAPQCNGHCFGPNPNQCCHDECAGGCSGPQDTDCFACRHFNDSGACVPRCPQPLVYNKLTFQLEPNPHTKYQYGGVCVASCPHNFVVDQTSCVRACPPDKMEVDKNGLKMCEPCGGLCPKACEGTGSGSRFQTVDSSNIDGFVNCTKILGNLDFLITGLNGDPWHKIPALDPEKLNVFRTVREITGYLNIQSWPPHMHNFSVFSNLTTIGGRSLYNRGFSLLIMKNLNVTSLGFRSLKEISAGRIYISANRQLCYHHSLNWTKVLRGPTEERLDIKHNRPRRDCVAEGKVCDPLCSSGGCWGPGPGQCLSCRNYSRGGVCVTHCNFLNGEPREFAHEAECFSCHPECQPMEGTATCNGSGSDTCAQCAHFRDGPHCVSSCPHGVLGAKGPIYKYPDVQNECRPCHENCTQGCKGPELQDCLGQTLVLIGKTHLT
T4 sequence (Q8NBP7 31-452, stated change not applied): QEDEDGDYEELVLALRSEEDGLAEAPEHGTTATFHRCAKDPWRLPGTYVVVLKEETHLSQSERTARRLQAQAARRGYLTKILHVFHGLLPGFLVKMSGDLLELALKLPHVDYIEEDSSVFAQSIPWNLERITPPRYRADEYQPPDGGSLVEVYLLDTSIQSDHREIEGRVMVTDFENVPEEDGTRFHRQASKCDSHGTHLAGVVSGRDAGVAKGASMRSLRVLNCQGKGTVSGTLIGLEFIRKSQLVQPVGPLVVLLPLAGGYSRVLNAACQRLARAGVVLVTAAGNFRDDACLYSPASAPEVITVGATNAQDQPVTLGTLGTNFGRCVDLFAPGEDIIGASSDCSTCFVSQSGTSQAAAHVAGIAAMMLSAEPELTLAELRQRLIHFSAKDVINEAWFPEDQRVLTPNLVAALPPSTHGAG
Her3-Fc, sequence (P21860 20-643): as the sequence (P21860 20-643) above

B1: Notch2NRR (Notch2 NRR domain) (domain or fragment)
chain: ATCLSQYCADKARDGVCDEACNSHACQWDGGDCSLTMENPWANCSSPLPCWDYINNQCDELCNTVECLFDNFECQGNSKTCKYDKYCADHFKDNHCDQGCNSEECGWDGLDCAADQPENLAEGTLVIVVLMPPEQLLQDARSFLRALGTLLHTNLRIKRDSQGELMVYPYYGEKSAAMKKQRMTRRSLPGEQEQEVAGSKVFLEIDNRQCVQDSDHCFKNTDAAAALLASHAIQGTLSYPLVSVVSESLTPERTQ
modifications: biotin on the N-terminal Avi tag (enzymatic)
notes: also called NRR protein; not shown: Avi tag, N-terminal, kept
With B1 the Kd [1] was 0.8 µM and the Kd [2] was 9.4 µM.

Binder ECKGKGAKCSFMTRQGVQTWCCTGSCRSGKC (designed binder, Conotoxin-MVIIA scaffold) [PCSK9_CnTx2] has a Kd [3] of 2.8 µM.

With ECKGKGAKCSFMTRQGVQTWCCTGSCRSGKC (designed binder, Conotoxin-MVIIA scaffold) [PCSK9_CnTx2 displayed on M13 phage] the ELISA [4] was 1.7 and the s/n Ratio [4] was 25.9.

Work on WIPCISAALGCSCKNKVCYFLYQICGESCV (designed binder) [HtrA1_CirA38] yielded a Kd [5] of 2.5 µM.

GPTQSKYGMCGGIGYSGPTVCASGTTCQVLDPYTSQCLPGAS (designed binder) [PCSK9FL_CBD2] showed a Kd [3] of 3.6 µM.

GPTQSKYGMCGGIGYSGPTVCASGTTCQVLDPYTSQCLPGAS (designed binder) [PCSK9FL_CBD2 displayed on M13 phage] showed an ELISA [6] of 1.9 and a s/n Ratio [6] of 26.8.

In the case of GCGWTLAHCKQDSDCLAGCVCQPRWVCG (designed binder) [N2L-EET-29], the Kd [7] is reported as 102 µM.

GCHRPWWQLWGLCKQDSDCLAGCVCGPNGFCG (designed binder) [HtrA1_EET76] showed a Kd [5] of 9.5 µM.

GPTQSWQGRCGGIGYSGPTVCASGTTCQVLTPYWSECLPGAS (designed binder, also called Her3_CBD1) [Her3-Fc_CBD1] showed a Kd [8] of 27 µM.

GPTQSWQGRCGGIGYSGPTVCASGTTCQVLTPYWSECLPGAS (designed binder) [Her3-Fc_CBD1 displayed on M13 phage] was tested, and the ELISA [9] was 1.7 and the s/n Ratio [9] was 20.2.

For VSCTTSKECWSVCQRLHNTSWLGSCMERFCKCVD (designed binder, Charybdotoxin scaffold) [Her3-Fc_ChTx2], the Kd [8] was 1.5 µM.

For GCIKSHLWCPKTSDCEAGCICEVWIQCG (designed binder) [N2L.EET31.43.24], the Kd [10] was 3.5 µM.

In the case of GCIRSHLWCPPSASCLAGCVCEVWIQCG (designed binder) [N2L.EET31.32.70], the Kd [10] is reported as 1 µM.

Work on WIPCISAALGCSCKNKVCYIFSKHLCGESCV (designed binder) [HtrA1_CirA65] yielded a Kd [5] of 2.7 µM.

GCIRSHVWCKQDSDCEAGCICEIWIQCG (designed binder) [N2L.EET31.43.43] showed a Kd [10] of 3.5 µM.

ACKGVFDACTWKNWRQSRSRECCPNAVCSDKHKWCKWKL (designed binder, Huwentoxin scaffold) [HtrA1_HwTx69] gave a Kd [5] of 3.7 µM.

With ECKGKGAKCSIQWSVYPWKVCCTGSCRSGKC (designed binder, Conotoxin-MVIIA scaffold) [HtrA1_CnTx83] the Kd [5] was 6.4 µM.

GCGWTLRHCKQDSDCLAGCVCRPIWYCG (designed binder) [N2L.EET03.10] gave a Kd [10] of 4.5 µM.

GCIKSHLWCDPRKDCEAGCICEVWIQCG (designed binder) [N2L.EET31.43.75] showed a Kd [10] of 0.41 µM.

Work on GCGWTLAHCKQDSDCLAGCVCQPRWVCG (designed binder) [N2L-EET-29 displayed on M13 phage] yielded an ELISA [11] of 0.6 and a s/n Ratio [11] of 4.4.

GCIKSHLWCPRDSDCLAGCVCEVWIQCG (designed binder) [N2L.EET31.32.13] gave a Kd [10] of 35 µM.

For VSCTTSKECWSVCQRLHNTSWGEQCVTKFCKCEE (designed binder, Charybdotoxin scaffold) [Her3-Fc_ChTx1], the Kd [8] was over 10 µM.

GCGWTLWHCKQDSDCLAGCVCEPIWWCG (designed binder) [N2L-EET-03] gave a Kd [7] of 43.7 µM.

— article PMC10977697 (PLOS ONE, 2024)
